Laboratory results published in patent publication CN110577594A (UNIV NORTHWEST A&F, dated 2019).

Legend:
金黄色葡萄球菌肠毒素B = target: T1, 金黄色葡萄球菌肠毒素B (Staphylococcus aureus, UniProt P01552 28-266); test: direct ELISA, antigen coated, HRP-conjugated nanobody
T1 sequence: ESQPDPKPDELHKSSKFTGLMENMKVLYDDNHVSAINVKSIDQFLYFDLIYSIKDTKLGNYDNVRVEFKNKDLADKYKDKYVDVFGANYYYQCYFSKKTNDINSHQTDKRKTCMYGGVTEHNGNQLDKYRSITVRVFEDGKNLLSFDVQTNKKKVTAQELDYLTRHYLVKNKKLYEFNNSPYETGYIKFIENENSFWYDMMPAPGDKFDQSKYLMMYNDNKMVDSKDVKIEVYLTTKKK

金黄色葡萄球菌表面蛋白A = target: T2, 金黄色葡萄球菌表面蛋白A (Staphylococcus aureus, UniProt P38507 37-477); test: direct ELISA on coated whole S. aureus (ATCC25923, ATCC29213, ATCC26111), HRP-conjugated nanobody
T2 construct: whole, on cells; also called 葡萄球菌蛋白A; spA

B1: 金黄色葡萄球菌肠毒素A纳米抗体A21 (VHH)
VHH: ESGGGSVQAGGSLRLSCAASRNTYSYCSMGWYRQAPGKERELVSSIKSDDRTVYADSVKGRFTISRGNAKNTVHLLMNSLKPEDTAMYYCTFRCLERSGGETRYWGQGTQVTVS
notes: also called Clone A21; A21克隆
Q: Does B1 bind (金黄色葡萄球菌肠毒素B)?
A: no binding (tested: 500ng/mL)

Q: Does B1 bind (金黄色葡萄球菌表面蛋白A)?
A: no binding (tested: 10 7 cfu/mL)
